Source: the supplement of paper PMC9112550, “Optimization of the antimicrobial peptide Bac7 by deep mutational scanning” (BMC Biology, 2022)

Test system: Escherichia coli TOP10
Experiment: shrunken log2 fold change of peptide-encoding DNA abundance (4.5 h post-induction vs induction); higher = less antimicrobial activity (less host growth inhibition)
Conditions: time post-induction: 4.5 h; library: site-saturation at positions 5, 18, 19, 20
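Note: peptides expressed intracellularly from a pBAD plasmid library in pooled LB shake-flask culture, induced with 0.3% L-arabinose, DNA abundance read by NGS, three biological replicates, DESeq2 with apeglm shrinkage.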

In the case of RRIRPRPPRLPRPRPRPNGEPRP, the “shrunken log2 fold change” value is reported as 0.137.

In the case of RRIRTRPPRLPRPRPRPARFPRP, the “shrunken log2 fold change” value is reported as 0.128.

With RRIRYRPPRLPRPRPRPERKPRP the “shrunken log2 fold change” value was -0.109.

In the case of RRIRRRPPRLPRPRPRPWDIPRP, the “shrunken log2 fold change” value is reported as 0.0194.

With RRIRTRPPRLPRPRPRPRYLPRP the “shrunken log2 fold change” value was -0.131.

In the case of RRIRARPPRLPRPRPRPAGNPRP, the “shrunken log2 fold change” value is reported as 0.129.

RRIRHRPPRLPRPRPRPYFAPRP was tested, and the “shrunken log2 fold change” value was 0.52.

With RRIRCRPPRLPRPRPRPNCKPRP the “shrunken log2 fold change” value was -0.138.

RRIRPRPPRLPRPRPRPVGGPRP was tested, and the “shrunken log2 fold change” value was 0.408.

In the case of RRIRFRPPRLPRPRPRPRCEPRP, the “shrunken log2 fold change” value is reported as -0.0311.

For RRIRQRPPRLPRPRPRPGGIPRP, the “shrunken log2 fold change” value was 0.0484.

For RRIRQRPPRLPRPRPRPHNWPRP, the “shrunken log2 fold change” value was -0.311.

RRIRDRPPRLPRPRPRPMVHPRP was tested, and the “shrunken log2 fold change” value was 0.234.

For RRIRQRPPRLPRPRPRPKAGPRP, the “shrunken log2 fold change” value was 0.0875.

In the case of RRIRYRPPRLPRPRPRPQDVPRP, the “shrunken log2 fold change” value is reported as -0.103.

In the case of RRIRVRPPRLPRPRPRPLVWPRP, the “shrunken log2 fold change” value is reported as 0.115.

In the case of RRIRVRPPRLPRPRPRPIWIPRP, the “shrunken log2 fold change” value is reported as 0.0696.

RRIRGRPPRLPRPRPRPPTIPRP was tested, and the “shrunken log2 fold change” value was 0.459.

For RRIRSRPPRLPRPRPRPDQFPRP, the “shrunken log2 fold change” value was -0.167.

RRIRHRPPRLPRPRPRPRMGPRP was tested, and the “shrunken log2 fold change” value was -0.00555.

RRIRQRPPRLPRPRPRPVRNPRP was tested, and the “shrunken log2 fold change” value was -0.0556.

For RRIRCRPPRLPRPRPRPHWAPRP, the “shrunken log2 fold change” value was 0.244.

With RRIRMRPPRLPRPRPRPFRQPRP the “shrunken log2 fold change” value was 0.0135.

For RRIRLRPPRLPRPRPRPINDPRP, the “shrunken log2 fold change” value was -0.35.

RRIRLRPPRLPRPRPRPINNPRP was tested, and the “shrunken log2 fold change” value was -0.705.

In the case of RRIRCRPPRLPRPRPRPYKEPRP, the “shrunken log2 fold change” value is reported as 0.0662.

With RRIRFRPPRLPRPRPRPSEVPRP the “shrunken log2 fold change” value was -0.0167.

In the case of RRIRYRPPRLPRPRPRPHNNPRP, the “shrunken log2 fold change” value is reported as -1.16.

For RRIRWRPPRLPRPRPRPSVYPRP, the “shrunken log2 fold change” value was 0.0378.

RRIRERPPRLPRPRPRPVIAPRP was tested, and the “shrunken log2 fold change” value was -0.205.

In the case of RRIRLRPPRLPRPRPRPLIAPRP, the “shrunken log2 fold change” value is reported as -0.498.

For RRIRDRPPRLPRPRPRPQFIPRP, the “shrunken log2 fold change” value was -0.935.

With RRIRNRPPRLPRPRPRPYFWPRP the “shrunken log2 fold change” value was -0.0871.

With RRIRGRPPRLPRPRPRPEYEPRP the “shrunken log2 fold change” value was 0.165.

For RRIRFRPPRLPRPRPRPDIPPRP, the “shrunken log2 fold change” value was -0.634.

With RRIRQRPPRLPRPRPRPLGHPRP the “shrunken log2 fold change” value was 0.0124.

RRIRMRPPRLPRPRPRPQNIPRP was tested, and the “shrunken log2 fold change” value was -0.726.

With RRIRGRPPRLPRPRPRPIRPPRP the “shrunken log2 fold change” value was 0.209.

With RRIRVRPPRLPRPRPRPNWEPRP the “shrunken log2 fold change” value was 0.104.

For RRIRERPPRLPRPRPRPNKGPRP, the “shrunken log2 fold change” value was -0.164.

For RRIRTRPPRLPRPRPRPDMLPRP, the “shrunken log2 fold change” value was 0.035.

In the case of RRIRIRPPRLPRPRPRPTYNPRP, the “shrunken log2 fold change” value is reported as -0.783.

In the case of RRIRNRPPRLPRPRPRPNSVPRP, the “shrunken log2 fold change” value is reported as -0.0503.

For RRIRIRPPRLPRPRPRPPVGPRP, the “shrunken log2 fold change” value was 0.59.

In the case of RRIRRRPPRLPRPRPRPRGPPRP, the “shrunken log2 fold change” value is reported as 0.871.

RRIRRRPPRLPRPRPRPGCEPRP was tested, and the “shrunken log2 fold change” value was 0.354.

For RRIRNRPPRLPRPRPRPAMAPRP, the “shrunken log2 fold change” value was 0.0129.

RRIRKRPPRLPRPRPRPDTVPRP was tested, and the “shrunken log2 fold change” value was 0.00611.

RRIRDRPPRLPRPRPRPKQTPRP was tested, and the “shrunken log2 fold change” value was 0.0941.

With RRIRYRPPRLPRPRPRPVVTPRP the “shrunken log2 fold change” value was -0.351.

RRIRNRPPRLPRPRPRPDYDPRP was tested, and the “shrunken log2 fold change” value was -0.0133.

RRIRRRPPRLPRPRPRPAQPPRP was tested, and the “shrunken log2 fold change” value was 0.958.

For RRIRFRPPRLPRPRPRPYWQPRP, the “shrunken log2 fold change” value was -0.9.

For RRIRNRPPRLPRPRPRPKEYPRP, the “shrunken log2 fold change” value was 0.199.

With RRIRFRPPRLPRPRPRPERVPRP the “shrunken log2 fold change” value was 0.094.

With RRIRARPPRLPRPRPRPKRFPRP the “shrunken log2 fold change” value was 0.249.

RRIRVRPPRLPRPRPRPECKPRP was tested, and the “shrunken log2 fold change” value was 0.0339.

In the case of RRIRMRPPRLPRPRPRPYVDPRP, the “shrunken log2 fold change” value is reported as -0.249.

With RRIRNRPPRLPRPRPRPQHSPRP the “shrunken log2 fold change” value was -0.428.

In the case of RRIRNRPPRLPRPRPRPSGLPRP, the “shrunken log2 fold change” value is reported as 0.0284.

In the case of RRIRLRPPRLPRPRPRPDSYPRP, the “shrunken log2 fold change” value is reported as 0.00388.

RRIRDRPPRLPRPRPRPSEFPRP was tested, and the “shrunken log2 fold change” value was -0.0277.

RRIRTRPPRLPRPRPRPTEDPRP was tested, and the “shrunken log2 fold change” value was 0.196.

In the case of RRIRCRPPRLPRPRPRPVGMPRP, the “shrunken log2 fold change” value is reported as 0.0711.

For RRIRLRPPRLPRPRPRPELKPRP, the “shrunken log2 fold change” value was 0.0568.

In the case of RRIRPRPPRLPRPRPRPDSGPRP, the “shrunken log2 fold change” value is reported as 0.0463.

RRIRSRPPRLPRPRPRPWWCPRP was tested, and the “shrunken log2 fold change” value was 0.0769.

RRIRERPPRLPRPRPRPSYSPRP was tested, and the “shrunken log2 fold change” value was -0.147.

With RRIRHRPPRLPRPRPRPHCYPRP the “shrunken log2 fold change” value was 0.0262.

For RRIRPRPPRLPRPRPRPTRTPRP, the “shrunken log2 fold change” value was 0.508.

For RRIRCRPPRLPRPRPRPDARPRP, the “shrunken log2 fold change” value was -0.0562.

RRIRKRPPRLPRPRPRPYGSPRP was tested, and the “shrunken log2 fold change” value was -0.224.

In the case of RRIRSRPPRLPRPRPRPFHEPRP, the “shrunken log2 fold change” value is reported as -0.263.

RRIRHRPPRLPRPRPRPVNPPRP was tested, and the “shrunken log2 fold change” value was -0.307.

For RRIRVRPPRLPRPRPRPTFDPRP, the “shrunken log2 fold change” value was -0.0428.
